{"source": "patent EP4792821A2", "about": "(Beijing Youcare Kechuang Pharmaceutical Technology Co., Ltd., dated 2026)", "note": "Where no end group is shown, it is not given here. The star is where a group is joined. Succinyl(4-O-cholesteryl) = CC(C)CCC[C@@H](C)[C@H]1CC[C@H]2[C@@H]3CC=C4C[C@@H](OC(=O)CCC(=O)*)CC[C@]4(C)[C@H]3CC[C@]12C"}
{"target": "F protein of RSV A long virus strain (Respiratory Syncytial Virus (RSV) A …, UniProt P12568 26-574)", "sequence (P12568 26-574)": "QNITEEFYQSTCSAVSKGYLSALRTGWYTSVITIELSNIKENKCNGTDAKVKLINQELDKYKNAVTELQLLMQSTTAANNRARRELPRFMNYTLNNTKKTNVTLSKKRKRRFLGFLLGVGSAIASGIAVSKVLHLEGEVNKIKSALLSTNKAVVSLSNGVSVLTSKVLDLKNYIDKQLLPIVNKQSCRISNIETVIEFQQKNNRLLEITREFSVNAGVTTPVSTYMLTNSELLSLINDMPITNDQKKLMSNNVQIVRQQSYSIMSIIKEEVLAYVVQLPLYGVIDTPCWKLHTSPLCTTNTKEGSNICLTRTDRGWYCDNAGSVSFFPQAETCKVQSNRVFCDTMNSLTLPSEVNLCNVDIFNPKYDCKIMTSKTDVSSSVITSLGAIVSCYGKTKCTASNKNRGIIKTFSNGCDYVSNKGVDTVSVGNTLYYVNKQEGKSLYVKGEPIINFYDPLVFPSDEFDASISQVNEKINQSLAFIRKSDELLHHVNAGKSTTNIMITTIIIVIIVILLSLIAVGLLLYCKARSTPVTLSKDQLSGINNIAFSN", "assay": "cell-based or functional assay", "units": {"IC50/nM, plaque reduction, RSV A long on HEp-2 cells (Table 2, Cell fusion inhibition activity)": "nM"}}
{"binder": "VFPSDEFDASISQVNEKINQSLAAIRKSDELLHNV (not fully specified; also: modifications not known)", "note": "[Positive polypeptide 6]", "IC50/nM, plaque reduction, RSV A long on HEp-2 cells (Table 2, Cell fusion inhibition activity)": "> 300"}
{"binder": "FDASISQVNEKINQSLAFIRKSDELLHNVNAGKSTTEAAAKK (not fully specified; also: modifications not known)", "note": "[Positive polypeptide 7]", "IC50/nM, plaque reduction, RSV A long on HEp-2 cells (Table 2, Cell fusion inhibition activity)": "> 300"}
{"binder": "Ac-FDELVNKKIEKIEEVNKKSLKLLESEAAAKK(Succinyl(4-O-cholesteryl))-NH2 (SMILES CC[C@H](C)[C@H](NC(=O)[C@H](CCCCN)NC(=O)[C@H](CCCCN)NC(=O)[C@H](CC(N)=O)NC(=O)[C@@H](NC(=O)[C@H](CC(C)C)NC(=O)[C@H](CCC(=O)O)NC(=O)[C@H](CC(=O)O)NC(=O)[C@H](Cc1ccccc1)NC(C)=O)C(C)C)C(=O)N[C@@H](CCC(=O)O)C(=O)N[C@@H](CCCCN)C(=O)N[C@H](C(=O)N[C@@H](CCC(=O)O)C(=O)N[C@@H](CCC(=O)O)C(=O)N[C@H](C(=O)N[C@@H](CC(N)=O)C(=O)N[C@@H](CCCCN)C(=O)N[C@@H](CCCCN)C(=O)N[C@@H](CO)C(=O)N[C@@H](CC(C)C)C(=O)N[C@@H](CCCCN)C(=O)N[C@@H](CC(C)C)C(=O)N[C@@H](CC(C)C)C(=O)N[C@@H](CCC(=O)O)C(=O)N[C@@H](CO)C(=O)N[C@@H](CCC(=O)O)C(=O)N[C@@H](C)C(=O)N[C@@H](C)C(=O)N[C@@H](C)C(=O)N[C@@H](CCCCN)C(=O)N[C@@H](CCCCNC(=O)CCC(=O)O[C@H]1CC[C@@]2(C)C(=CC[C@H]3[C@@H]4CC[C@H]([C@H](C)CCCC(C)C)[C@@]4(C)CC[C@@H]32)C1)C(N)=O)C(C)C)[C@@H](C)CC)", "note": "[Compound 37]", "IC50/nM, plaque reduction, RSV A long on HEp-2 cells (Table 2, Cell fusion inhibition activity)": 5230}
{"binder": "SLEQVNKKIEQSLKFIEKSDKLLENGSGSGK (not fully specified; also: modifications not known)", "note": "[Positive polypeptide 1]", "IC50/nM, plaque reduction, RSV A long on HEp-2 cells (Table 2, Cell fusion inhibition activity)": 150}
{"binder": "Ac-WDEFDKKIEEVNKKIEESLKKIEESDKKLEEVNKKL-NH2", "note": "[Compound 5]", "IC50/nM, plaque reduction, RSV A long on HEp-2 cells (Table 2, Cell fusion inhibition activity)": 1120}
{"binder": "Ac-VNKKIEEEKQSLKKQSDKIEESDENEAAAKK(Succinyl(4-O-cholesteryl))-NH2 (SMILES CC[C@H](C)[C@H](NC(=O)[C@H](CCCCN)NC(=O)[C@H](CC(=O)O)NC(=O)[C@H](CO)NC(=O)[C@H](CCC(N)=O)NC(=O)[C@H](CCCCN)NC(=O)[C@H](CCCCN)NC(=O)[C@H](CC(C)C)NC(=O)[C@H](CO)NC(=O)[C@H](CCC(N)=O)NC(=O)[C@H](CCCCN)NC(=O)[C@H](CCC(=O)O)NC(=O)[C@H](CCC(=O)O)NC(=O)[C@H](CCC(=O)O)NC(=O)[C@@H](NC(=O)[C@H](CCCCN)NC(=O)[C@H](CCCCN)NC(=O)[C@H](CC(N)=O)NC(=O)[C@@H](NC(C)=O)C(C)C)[C@@H](C)CC)C(=O)N[C@@H](CCC(=O)O)C(=O)N[C@@H](CCC(=O)O)C(=O)N[C@@H](CO)C(=O)N[C@@H](CC(=O)O)C(=O)N[C@@H](CCC(=O)O)C(=O)N[C@@H](CC(N)=O)C(=O)N[C@@H](CCC(=O)O)C(=O)N[C@@H](C)C(=O)N[C@@H](C)C(=O)N[C@@H](C)C(=O)N[C@@H](CCCCN)C(=O)N[C@@H](CCCCNC(=O)CCC(=O)O[C@H]1CC[C@@]2(C)C(=CC[C@H]3[C@@H]4CC[C@H]([C@H](C)CCCC(C)C)[C@@]4(C)CC[C@@H]32)C1)C(N)=O)", "note": "[Compound 36]", "IC50/nM, plaque reduction, RSV A long on HEp-2 cells (Table 2, Cell fusion inhibition activity)": 6820}
{"binder": "Ac-SLEQVNKINEKINKISQSLKKIEESDKKSDEVNAGLEAAAKK-NH2", "note": "[Compound 48]", "IC50/nM, plaque reduction, RSV A long on HEp-2 cells (Table 2, Cell fusion inhibition activity)": "> 8000"}
{"binder": "IEEVNKKIEESLKKIEESDKKLEEVNKKKEAAAKK (not fully specified; also: modifications not known)", "note": "[Positive polypeptide 3]", "IC50/nM, plaque reduction, RSV A long on HEp-2 cells (Table 2, Cell fusion inhibition activity)": "> 300"}
{"binder": "Ac-IEQVNKKIEQSLKFIEKSDKLLENVNKGK-NH2", "note": "[Positive polypeptide 2]", "IC50/nM, plaque reduction, RSV A long on HEp-2 cells (Table 2, Cell fusion inhibition activity)": "> 300"}
{"binder": "Ac-SLEQVNKINKKIDKIEESLKKIEESDKKSLEVNKKLEAAAKK-NH2", "note": "[Compound 47]", "IC50/nM, plaque reduction, RSV A long on HEp-2 cells (Table 2, Cell fusion inhibition activity)": "> 8000"}
{"binder": "Ac-SLEQVNKKIEQSLESLKKSDKINQSLEEVNKSDELLEAAAKK-NH2", "note": "[Compound 49]", "IC50/nM, plaque reduction, RSV A long on HEp-2 cells (Table 2, Cell fusion inhibition activity)": "> 8000"}
{"binder": "Ac-SISQVNEKINEIQSLEEKSDKLLKSEAAAKK(Succinyl(4-O-cholesteryl))-NH2 (SMILES CC[C@H](C)[C@H](NC(=O)[C@H](CO)NC(C)=O)C(=O)N[C@@H](CO)C(=O)N[C@@H](CCC(N)=O)C(=O)N[C@H](C(=O)N[C@@H](CC(N)=O)C(=O)N[C@@H](CCC(=O)O)C(=O)N[C@@H](CCCCN)C(=O)N[C@H](C(=O)N[C@@H](CC(N)=O)C(=O)N[C@@H](CCC(=O)O)C(=O)N[C@H](C(=O)N[C@@H](CCC(N)=O)C(=O)N[C@@H](CO)C(=O)N[C@@H](CC(C)C)C(=O)N[C@@H](CCC(=O)O)C(=O)N[C@@H](CCC(=O)O)C(=O)N[C@@H](CCCCN)C(=O)N[C@@H](CO)C(=O)N[C@@H](CC(=O)O)C(=O)N[C@@H](CCCCN)C(=O)N[C@@H](CC(C)C)C(=O)N[C@@H](CC(C)C)C(=O)N[C@@H](CCCCN)C(=O)N[C@@H](CO)C(=O)N[C@@H](CCC(=O)O)C(=O)N[C@@H](C)C(=O)N[C@@H](C)C(=O)N[C@@H](C)C(=O)N[C@@H](CCCCN)C(=O)N[C@@H](CCCCNC(=O)CCC(=O)O[C@H]1CC[C@@]2(C)C(=CC[C@H]3[C@@H]4CC[C@H]([C@H](C)CCCC(C)C)[C@@]4(C)CC[C@@H]32)C1)C(N)=O)[C@@H](C)CC)[C@@H](C)CC)C(C)C)", "note": "[Compound 35]", "IC50/nM, plaque reduction, RSV A long on HEp-2 cells (Table 2, Cell fusion inhibition activity)": 5530}
{"binder": "Ac-FEVNRRRIEQSLEKSLESLEEEEHSDKKLHNELH-NH2", "note": "[Compound 46]", "IC50/nM, plaque reduction, RSV A long on HEp-2 cells (Table 2, Cell fusion inhibition activity)": "> 8000"}
{"binder": "Ac-WDEFDASISQNEKINQSLEEIRKSDELLHNNALEAAAKK(Succinyl(4-O-cholesteryl))-NH2 (SMILES CC[C@H](C)[C@H](NC(=O)[C@H](CO)NC(=O)[C@H](C)NC(=O)[C@H](CC(=O)O)NC(=O)[C@H](Cc1ccccc1)NC(=O)[C@H](CCC(=O)O)NC(=O)[C@H](CC(=O)O)NC(=O)[C@H](Cc1c[nH]c2ccccc12)NC(C)=O)C(=O)N[C@@H](CO)C(=O)N[C@@H](CCC(N)=O)C(=O)N[C@@H](CC(N)=O)C(=O)N[C@@H](CCC(=O)O)C(=O)N[C@@H](CCCCN)C(=O)N[C@H](C(=O)N[C@@H](CC(N)=O)C(=O)N[C@@H](CCC(N)=O)C(=O)N[C@@H](CO)C(=O)N[C@@H](CC(C)C)C(=O)N[C@@H](CCC(=O)O)C(=O)N[C@@H](CCC(=O)O)C(=O)N[C@H](C(=O)N[C@@H](CCCNC(=N)N)C(=O)N[C@@H](CCCCN)C(=O)N[C@@H](CO)C(=O)N[C@@H](CC(=O)O)C(=O)N[C@@H](CCC(=O)O)C(=O)N[C@@H](CC(C)C)C(=O)N[C@@H](CC(C)C)C(=O)N[C@@H](Cc1c[nH]cn1)C(=O)N[C@@H](CC(N)=O)C(=O)N[C@@H](CC(N)=O)C(=O)N[C@@H](C)C(=O)N[C@@H](CC(C)C)C(=O)N[C@@H](CCC(=O)O)C(=O)N[C@@H](C)C(=O)N[C@@H](C)C(=O)N[C@@H](C)C(=O)N[C@@H](CCCCN)C(=O)N[C@@H](CCCCNC(=O)CCC(=O)O[C@H]1CC[C@@]2(C)C(=CC[C@H]3[C@@H]4CC[C@H]([C@H](C)CCCC(C)C)[C@@]4(C)CC[C@@H]32)C1)C(N)=O)[C@@H](C)CC)[C@@H](C)CC)", "note": "[Compound 39]", "IC50/nM, plaque reduction, RSV A long on HEp-2 cells (Table 2, Cell fusion inhibition activity)": 113}
{"binder": "Ac-FDASLLKIEEEKKKIEELLKLHNESDKKLEEV-NH2", "note": "[Compound 4]", "IC50/nM, plaque reduction, RSV A long on HEp-2 cells (Table 2, Cell fusion inhibition activity)": "> 8000"}
{"binder": "Ac-FDEEVNKKIEQSLKINQSLEEIRKSEAAAKK(Succinyl(4-O-cholesteryl))-NH2 (SMILES CC[C@H](C)[C@H](NC(=O)[C@H](CCC(=O)O)NC(=O)[C@H](CCC(=O)O)NC(=O)[C@H](CC(C)C)NC(=O)[C@H](CO)NC(=O)[C@H](CCC(N)=O)NC(=O)[C@H](CC(N)=O)NC(=O)[C@@H](NC(=O)[C@H](CCCCN)NC(=O)[C@H](CC(C)C)NC(=O)[C@H](CO)NC(=O)[C@H](CCC(N)=O)NC(=O)[C@H](CCC(=O)O)NC(=O)[C@@H](NC(=O)[C@H](CCCCN)NC(=O)[C@H](CCCCN)NC(=O)[C@H](CC(N)=O)NC(=O)[C@@H](NC(=O)[C@H](CCC(=O)O)NC(=O)[C@H](CCC(=O)O)NC(=O)[C@H](CC(=O)O)NC(=O)[C@H](Cc1ccccc1)NC(C)=O)C(C)C)[C@@H](C)CC)[C@@H](C)CC)C(=O)N[C@@H](CCCNC(=N)N)C(=O)N[C@@H](CCCCN)C(=O)N[C@@H](CO)C(=O)N[C@@H](CCC(=O)O)C(=O)N[C@@H](C)C(=O)N[C@@H](C)C(=O)N[C@@H](C)C(=O)N[C@@H](CCCCN)C(=O)N[C@@H](CCCCNC(=O)CCC(=O)O[C@H]1CC[C@@]2(C)C(=CC[C@H]3[C@@H]4CC[C@H]([C@H](C)CCCC(C)C)[C@@]4(C)CC[C@@H]32)C1)C(N)=O)", "note": "[Compound 34]", "IC50/nM, plaque reduction, RSV A long on HEp-2 cells (Table 2, Cell fusion inhibition activity)": "> 2000"}
{"binder": "IEQVNKKIEQSLKFIEKSDKLLENVNKGKCEAAAKK (not fully specified; also: modifications not known)", "note": "[Positive polypeptide 4]", "IC50/nM, plaque reduction, RSV A long on HEp-2 cells (Table 2, Cell fusion inhibition activity)": 190}
{"binder": "LEQVNKKIEQSLKFIEKSDKLLENVNKGKCEAAAKK (not fully specified; also: modifications not known)", "note": "[Positive polypeptide 5]", "IC50/nM, plaque reduction, RSV A long on HEp-2 cells (Table 2, Cell fusion inhibition activity)": "> 300"}
